T1: AP2-G D1 (Plasmodium falciparum, UniProt Q8I5I9 2123-2245)
T1 sequence: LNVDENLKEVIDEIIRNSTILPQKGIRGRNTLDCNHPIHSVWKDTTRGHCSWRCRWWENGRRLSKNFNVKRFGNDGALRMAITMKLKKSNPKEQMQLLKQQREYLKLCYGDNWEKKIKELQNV

B1: XGTACX_site583 (dsDNA)
DNA 1: ATAATATATATATAGTGTACATTTGAATATATTTGA
DNA 2: TCAAATATATTCAAATGTACACTATATATATATTAT
B2: XGTACX_site7911 (dsDNA)
DNA 1: TAGCATGATTTGCCTTGTACACAACCGTTTTAATAA
DNA 2: TTATTAAAACGGTTGTGTACAAGGCAAATCATGCTA
B3: XGTACX_site977 (dsDNA)
DNA 1: TTCAAATTGTTTATATGTACTTATAAAAATTGTCTG
DNA 2: CAGACAATTTTTATAAGTACATATAAACAATTTGAA
B4: XGTACX_site1874 (dsDNA)
DNA 1: GGTATAAAGAAATTTTGTACATATTTCTCCCTTTAA
DNA 2: TTAAAGGGAGAAATATGTACAAAATTTCTTTATACC
B5: XGTACX_site2117 (dsDNA)
DNA 1: TATAATATATGTATATGTACTTATGTTGAGAAACAT
DNA 2: ATGTTTCTCAACATAAGTACATATACATATATTATA
B6: XGTACX_site8705 (dsDNA)
DNA 1: ACTAAAGTGTATCACTGTACAATTCTTCTCTTTTTT
DNA 2: AAAAAAGAGAAGAATTGTACAGTGATACACTTTAGT
B7: XGTACX_site8080 (dsDNA)
DNA 1: AAGCTTAAAAATGGGGGTACGTCATAGGGATTCAAC
DNA 2: GTTGAATCCCTATGACGTACCCCCATTTTTAAGCTT
B8: XGTACX_site5487 (dsDNA)
DNA 1: ACAAGTTTAACATTTCGTACTTATTGTGTTTTTTTT
DNA 2: AAAAAAAACACAATAAGTACGAAATGTTAAACTTGT
B9: XGTACX_site8481 (dsDNA)
DNA 1: TCAATTTTTTAATGTTGTACTTTGTAAAAAAAAATA
DNA 2: TATTTTTTTTTACAAAGTACAACATTAAAAAATTGA
B10: XGTACX_site4551 (dsDNA)
DNA 1: ATATATATATATATTTGTACTTACATTTTTATTTAT
DNA 2: ATAAATAAAAATGTAAGTACAAATATATATATATAT
B11: XGTACX_site3550 (dsDNA)
DNA 1: AATATTAAAGAATAATGTACAAAATAAAAGCAAAGA
DNA 2: TCTTTGCTTTTATTTTGTACATTATTCTTTAATATT
B12: XGTACX_site5737 (dsDNA)
DNA 1: TAATGGAATACATATAGTACATAATATTACATACAT
DNA 2: ATGTATGTAATATTATGTACTATATGTATTCCATTA
B13: XGTACX_site1392 (dsDNA)
DNA 1: ATATGTAAAATATGGGGTACGAAGGTAGGTAGGTAA
DNA 2: TTACCTACCTACCTTCGTACCCCATATTTTACATAT
B14: XGTACX_site1414 (dsDNA)
DNA 1: CTATAATATTATAACAGTACATAATATTATATATAT
DNA 2: ATATATATAATATTATGTACTGTTATAATATTATAG
B15: XGTACX_site6785 (dsDNA)
DNA 1: ATATATGGAAAGAGTAGTACTATTATAGGGGTGTTA
DNA 2: TAACACCCCTATAATAGTACTACTCTTTCCATATAT
B16: XGTACX_site2966 (dsDNA)
DNA 1: AAACATATAAATCACGGTACACATTATTGAAAGTGT
DNA 2: ACACTTTCAATAATGTGTACCGTGATTTATATGTTT
B17: XGTACX_site4379 (dsDNA)
DNA 1: AATTAAATAAATGTATGTACATAATAAATATGTATT
DNA 2: AATACATATTTATTATGTACATACATTTATTTAATT
B18: XGTACX_site4853 (dsDNA)
DNA 1: TTTGACACAATATTTTGTACGAAACTATTAATTCAA
DNA 2: TTGAATTAATAGTTTCGTACAAAATATTGTGTCAAA
B19: XGTACX_site8765 (dsDNA)
DNA 1: TTCCCTCCTCAAAATTGTACTAGAATAATAACATAA
DNA 2: TTATGTTATTATTCTAGTACAATTTTGAGGAGGGAA
B20: XGTACX_site4821 (dsDNA)
DNA 1: AATAAAACATCATCATGTACAAAATTCGTCTTTGTA
DNA 2: TACAAAGACGAATTTTGTACATGATGATGTTTTATT
B21: XGTACX_site4930 (dsDNA)
DNA 1: TGGAGGATAGTTCACAGTACCCAGTAACTCTACGGA
DNA 2: TCCGTAGAGTTACTGGGTACTGTGAACTATCCTCCA
B22: XGTACX_site2720 (dsDNA)
DNA 1: TCCTATTTTATATAATGTACATAAATATATTACATA
DNA 2: TATGTAATATATTTATGTACATTATATAAAATAGGA
B23: XGTACX_site6680 (dsDNA)
DNA 1: TTTGTATATTATTTTAGTACATAACATTGAAGATAT
DNA 2: ATATCTTCAATGTTATGTACTAAAATAATATACAAA
B24: XGTACX_site4926 (dsDNA)
DNA 1: ATCAACATTATGGTTAGTACTTAGTGAATTGTTAAT
DNA 2: ATTAACAATTCACTAAGTACTAACCATAATGTTGAT
B25: XGTACX_site841 (dsDNA)
DNA 1: TATATATATAATATATGTACTGATATGCTATTTACT
DNA 2: AGTAAATAGCATATCAGTACATATATTATATATATA
B26: XGTACX_site1737 (dsDNA)
DNA 1: AGATCTATTATTTTTTGTACTTATATATAAACTTAA
DNA 2: TTAAGTTTATATATAAGTACAAAAAATAATAGATCT
B27: XGTACX_site2864 (dsDNA)
DNA 1: CCTATATAATTATAATGTACTTGTAAAAAATATAAC
DNA 2: GTTATATTTTTTACAAGTACATTATAATTATATAGG
B28: XGTACX_site150 (dsDNA)
DNA 1: ATATACATATATATATGTACTGAAAAGAAAAGAATT
DNA 2: AATTCTTTTCTTTTCAGTACATATATATATGTATAT
B29: XGTACX_site8448 (dsDNA)
DNA 1: AGGTTTCATTTAGCATGTACATATTATAAAAATTGT
DNA 2: ACAATTTTTATAATATGTACATGCTAAATGAAACCT
B30: XGTACX_site2945 (dsDNA)
DNA 1: AAGCATAAAGTATATAGTACATATATATATATATAT
DNA 2: ATATATATATATATATGTACTATATACTTTATGCTT
B31: XGTACX_site5139 (dsDNA)
DNA 1: TATATACAGAATATATGTACATATTCATTTTATATT
DNA 2: AATATAAAATGAATATGTACATATATTCTGTATATA
B32: XGTACX_site84 (dsDNA)
DNA 1: AATTAAATGGATAAATGTACATATGTGAATATATTT
DNA 2: AAATATATTCACATATGTACATTTATCCATTTAATT
B33: XGTACX_site8539 (dsDNA)
DNA 1: AAATAAAGTAAAATATGTACATAAATTAAAACACAT
DNA 2: ATGTGTTTTAATTTATGTACATATTTTACTTTATTT
B34: XGTACX_site6588 (dsDNA)
DNA 1: AAAAATTGAATGATGTGTACTTAAAAGAATATAGAA
DNA 2: TTCTATATTCTTTTAAGTACACATCATTCAATTTTT
B35: XGTACX_site5503 (dsDNA)
DNA 1: TATATATATATAGGTTGTACATTTTGATGTTTACGT
DNA 2: ACGTAAACATCAAAATGTACAACCTATATATATATA
B36: XGTACX_site8657 (dsDNA)
DNA 1: ATTAAGATGTATATATGTACATATTACATACATATA
DNA 2: TATATGTATGTAATATGTACATATATACATCTTAAT
B37: XGTACX_site8514 (dsDNA)
DNA 1: AGTATTATATATATATGTACATAATATACATATATA
DNA 2: TATATATGTATATTATGTACATATATATATAATACT
B38: XGTACX_site5674 (dsDNA)
DNA 1: TATCTAGTTACTCCTTGTACATAATAAATGATTTTT
DNA 2: AAAAATCATTTATTATGTACAAGGAGTAACTAGATA
B39: XGTACX_site4915 (dsDNA)
DNA 1: AACGAAAACACTACGTGTACCAAACGTCCTACTAAC
DNA 2: GTTAGTAGGACGTTTGGTACACGTAGTGTTTTCGTT
B40: XGTACX_site8691 (dsDNA)
DNA 1: AAAAATATTTTGGTTTGTACATATATTTTTACAATA
DNA 2: TATTGTAAAAATATATGTACAAACCAAAATATTTTT
B41: XGTACX_site5309 (dsDNA)
DNA 1: CTATACAATAAAAATTGTACATACATATATGTTATA
DNA 2: TATAACATATATGTATGTACAATTTTTATTGTATAG
B42: XGTACX_site8642 (dsDNA)
DNA 1: CAAAGCATAGTATGATGTACAAATGTTCCTATAATA
DNA 2: TATTATAGGAACATTTGTACATCATACTATGCTTTG
B43: XGTACX_site894 (dsDNA)
DNA 1: AATAATGTTATAAATTGTACGTGTATTATTCATTAC
DNA 2: GTAATGAATAATACACGTACAATTTATAACATTATT

Biological target: T1, AP2-G D1
Assay: gcPBM; about 25 ug protein; PBS, 1% milk, 0.2 mg/ml BSA, salmon testes DNA, 0.03% Triton X-100
Settings: tags: N-terminal GST (pGEX-4T-1), kept; label: surface-attached array probe

Binder	binding signal
B1	11.6 ln median PBM intensity, better of two orientations
B2	11.7 ln median PBM intensity, better of two orientations
B3	11.8 ln median PBM intensity, better of two orientations
B4	11.1 ln median PBM intensity, better of two orientations
B5	11.7 ln median PBM intensity, better of two orientations
B6	10.9 ln median PBM intensity, better of two orientations
B7	11.7 ln median PBM intensity, better of two orientations
B8	10.9 ln median PBM intensity, better of two orientations
B9	11.7 ln median PBM intensity, better of two orientations
B10	11.6 ln median PBM intensity, better of two orientations
B11	10.9 ln median PBM intensity, better of two orientations
B12	11.3 ln median PBM intensity, better of two orientations
B13	11.7 ln median PBM intensity, better of two orientations
B14	10.8 ln median PBM intensity, better of two orientations
B15	11.7 ln median PBM intensity, better of two orientations
B16	11.6 ln median PBM intensity, better of two orientations
B17	11.7 ln median PBM intensity, better of two orientations
B18	11 ln median PBM intensity, better of two orientations
B19	11 ln median PBM intensity, better of two orientations
B20	10.6 ln median PBM intensity, better of two orientations
B21	10.9 ln median PBM intensity, better of two orientations
B22	11.5 ln median PBM intensity, better of two orientations

Binder	binding signal
B23	11.4 ln median PBM intensity, better of two orientations
B24	11 ln median PBM intensity, better of two orientations
B25	11 ln median PBM intensity, better of two orientations
B26	11.5 ln median PBM intensity, better of two orientations
B27	11.8 ln median PBM intensity, better of two orientations
B28	11.4 ln median PBM intensity, better of two orientations
B29	11.6 ln median PBM intensity, better of two orientations
B30	11.3 ln median PBM intensity, better of two orientations
B31	11.4 ln median PBM intensity, better of two orientations
B32	11.4 ln median PBM intensity, better of two orientations
B33	11.6 ln median PBM intensity, better of two orientations
B34	11.8 ln median PBM intensity, better of two orientations
B35	11.5 ln median PBM intensity, better of two orientations
B36	11.4 ln median PBM intensity, better of two orientations
B37	11.6 ln median PBM intensity, better of two orientations
B38	11 ln median PBM intensity, better of two orientations
B39	11.5 ln median PBM intensity, better of two orientations
B40	11.5 ln median PBM intensity, better of two orientations
B41	11.3 ln median PBM intensity, better of two orientations
B42	11 ln median PBM intensity, better of two orientations
B43	11.8 ln median PBM intensity, better of two orientations

Source: PMC11417369, “DNA sequence and chromatin differentiate sequence-specific transcription factor binding in the human malaria parasite Plasmodium falciparum”
